Assay results taken from US11833164B2, “Methods of treating Fabry disease in patients having a mutation in the GLA gene” (Amicus Therapeutics, Inc., priority 2019, dated 2023).
Numbering of substitutions follows the chain as printed. Names may count otherwise.

B1: M353T (protein)
chain: MQLRNPELHLGCALALRFLALVSWDIPGARALDNGLARTPTMGWLHWERFMCNLDCQEEPDSCISEKLFMEMAELMVSEGWKDAGYEYLCIDDCWMAPQRDSEGRLQADPQRFPHGIRQLANYVHSKGLKLGIYADVGNKTCAGFPGSFGYYDIDAQTFADWGVDLLKFDGCYCDSLENLADGYKHMSLALNRTGRSIVYSCEWPLYMWPFQKPNYTEIRQYCNHWRNFADIDDSWKSIKSILDWTSFNQERIVDVAGPGGWNDPDMLVIGNFGLSWNQQVTQMALWAIMAAPLFMSNDLRHISPQAKALLQDKDVIAINQDPLGKQGYQLRQGDNFEVWERPLSGLAWAVATINRQEIGGPRSYTIAVASLGKGVACNPACFITQLLPVKRKLGFYEWTSRLRSHINPTGTVLLQLENTMQMSLKDLL
B2: N355Y (protein)
chain: B1 chain with T353M, N355Y
B3: Q357E (protein)
chain: B1 chain with T353M, Q357E
B4: N355H (protein)
chain: B1 chain with T353M, N355H
B5: N355S (protein)
chain: B1 chain with T353M, N355S
B6: I354R (protein)
chain: B1 chain with T353M, I354R
B7: R356L (protein)
chain: B1 chain with T353M, R356L
B8: N355D (protein)
chain: B1 chain with T353M, N355D

Tested on: mutant form of α-Gal A expressed in HEK-293 cells
Assay: HEK assay (GLP HEK / Migalastat Amenability Assay): α-Gal A activity in lysates of transiently transfected HEK-293 cells incubated with or without 10 μM migalastat
Assay type: cell-based, human
Details: for Absolute increase (% WT) / Relative increase: 10 μM migalastat versus baseline; for Baseline α-Gal A activity (% WT): absence of migalastat; for Baseline α-Gal A activity (% WT) / 10 μM migalastat α-Gal A activity (% WT): percentage of baseline wild-type α-Gal A activity; for Baseline α-Gal A activity (% WT) / Baseline α-Gal A activity / 10 μM migalastat α-Gal A activity / 10 μM migalastat α-Gal A activity (% WT): mean ± SEM; for Baseline α-Gal A activity / 10 μM migalastat α-Gal A activity: lysates of HEK-293 cells transiently transfected with the mutant form; for Baseline α-Gal A activity: incubated 5 days in absence of migalastat; for 10 μM migalastat α-Gal A activity: incubated 5 days with 10 μM migalastat; for 10 μM migalastat α-Gal A activity (% WT): with 10 μM migalastat, 5 days
Method in brief: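 Activity reported as 4-MU released (nmol/mg/hr), mean±SEM, from lysates of transiently transfected HEK-293 cells expressing mutant α-Gal A, cultured with or without 10 μM migalastat.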

Molecule | Absolute increase (% WT) | Relative increase | Baseline α-Gal A activity (% WT) | Baseline α-Gal A activity [nmol/mg/h] | 10 μM migalastat α-Gal A activity [nmol/mg/h] | 10 μM migalastat α-Gal A activity (% WT)
B1 | 19.2 | 1.4 | 46.4 ± 2.8 | 15631 ± 1026 | 21953 ± 937 | 65.6 ± 3
B2 | 26.6 | 2.8 | 15.2 ± 1 | 5994 ± 461 | 16930 ± 1745 | 41.8 ± 3.3
B3 | 41.5 | 1.9 | 42.8 ± 2.1 | 15264 ± 877 | 28922 ± 1194 | 84.3 ± 6.3
B4 | 9.9 | 3.5 | 4 ± 0.2 | 1822 ± 81 | 6399 ± 338 | 13.9 ± 0.6
B5 | 30.8 | 2.2 | 25.9 ± 1.6 | 11397 ± 817 | 24820 ± 1396 | 56.7 ± 2.8
B6 | 27.8 | 2.4 | 20.1 ± 1.2 | 9157 ± 633 | 21854 ± 1398 | 47.9 ± 2.6
B7 | 43.7 | 2.8 | 24.4 ± 1 | 10680 ± 518 | 29548 ± 2017 | 68.1 ± 4.6
B8 | 16.7 | 3.3 | 7.3 ± 0.4 | 3366 ± 241 | 11004 ± 832 | 24 ± 1.6
